Experimental data published in patent US20170137511A1 (CALYPSO BIOTECH, published 2017).

What follows are binders tested against recombinant human IL-15 (Prospec cat no. CYT230) (human, UniProt P40933 49-162) (assay: ELISA, plate-bound human IL-15; printed as BC50 (half-maximal binding concentration)).
Method: (§1) Maxisorp plates were coated with recombinant human IL-15 (Prospec cat no. CYT230) or Rhesus macaque IL-15 (MyBiosource cat. no. MBS948894) at 100 ng/well in carbonate coating buffer for 2 hours at 37° C. Since published sequences of Rhesus macaque and Cynomolgus monkey IL-15 are identical, such recombinant IL-15 protein was referred to as Macaque Monkey IL-15. Tested human IL-15 recombinant protein has a sequence identical to that provided in SEQ ID NO: 1 but with an additional methionine at the N-terminal position as usually done for expressing recombinant proteins in E. Coli. Tested recombinant Macaque Monkey IL-15 was produced in yeast and has a sequence identical to that provided in SEQ ID NO: 4 but with an additional N-terminal His tag.
(§2) The plate was then blocked with 2% normal goat serum for 30 min at 37° C. and washed 6 times with PBS-Tween (0.05% Tween-20 in PBS, v/v). Test antibodies were added to the plate in triplicate at various dilutions in PBS-Tween and the plate was incubated with gentle rocking at room temperature for 2 hours. The plate was then washed 6 times with PBS-Tween and an appropriate dilution of goat anti-human IgG antibody (Millipore cat. no. AP309P) conjugated to horseradish peroxidase (HRP) was added to the plate and left rocking at room temperature for 1 hour. The plate was then washed 6 times with PBS-Tween and incubated with TMB substrate. The reaction was stopped by the addition of 1M H₂SO₄ and read at 450 nm. Dose response curves of absorbance versus concentration were plotted and analyzed to determine half-maximal binding concentrations (BC₅₀) using the Graphpad Prism software. BC₅₀ values expressed as molarity were extrapolated from concentration in ng/ml using a 150 kDa molecular weight value for all antibodies.

Sequence of recombinant human IL-15 (Prospec cat no. CYT230) (P40933 other isoform, or with tags, fused parts or gaps): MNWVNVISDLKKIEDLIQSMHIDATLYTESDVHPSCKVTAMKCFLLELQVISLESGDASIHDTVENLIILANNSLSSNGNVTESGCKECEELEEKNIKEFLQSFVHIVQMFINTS

Binder	EC50 [nM]
huB-E29-16 (antibody, human IgG1, kappa, V domains shown, Humanized B-E29 variant; human IgG1 (G1m3) / kappa (Km3), produced in CHO cells; also called huVH14/huVL1) VH: EVRLMASGGGLVQPGGSLRLSCAASEFTFSNYAMSWVRQAPGKGLEWVATISRGGDYTYYPESVKGRFTISRDNSKNTLYLQMNSLRAEDTAVYYCARRVSMITGGWAMDYWGQGTLVTVSS VL: DVVMTQSPLSLPVTLGQPASISCRSSQSIVDITGNTYLEWYQQRPGQSPRLLIYKVFNRFSGVPDRFSGSGSGTDFTLKISRVEAEDVGVYYCFQDSFVPYTFGQGTKLEIKR	2.01
huB-E29-7 (antibody, human IgG1, kappa, V domains shown, Humanized B-E29 variant; human IgG1 (G1m3) / kappa (Km3), produced in CHO cells; also called huVH5/huVL1) VH: EVRLMASGGGLVQPGGSLRLSCAASEFTFSNYAMSWVRQAPGKGLEWVATISRGGDYTYYPESVKGRFTISRDNSKNTLYLQMNSLRAEDTAVYYCARRVSFITGGWAMDYWGQGTLVTVSS VL: DVVMTQSPLSLPVTLGQPASISCRSSQSIVDITGNTYLEWYQQRPGQSPRLLIYKVFNRFSGVPDRFSGSGSGTDFTLKISRVEAEDVGVYYCFQDSFVPYTFGQGTKLEIKR	0.84
huB-E29-30 (antibody, human IgG1, kappa, V domains shown, Humanized B-E29 variant; human IgG1 (G1m3) / kappa (Km3), produced in CHO cells; also called huVH20/huVL1) VH: EVRLMASGGGLVQPGGSLRLSCAASEFTFSNYAMSWVRQAPGKGLEWVATISRGGDYTYYPDSVKGRFTISRDNSKNTLYLQMNSLRAEDTAVYYCARRVSFITGGYAMDYWGQGTLVTVSS VL: DVVMTQSPLSLPVTLGQPASISCRSSQSIVDITGNTYLEWYQQRPGQSPRLLIYKVFNRFSGVPDRFSGSGSGTDFTLKISRVEAEDVGVYYCFQDSFVPYTFGQGTKLEIKR	5.87
huB-E29-34 (antibody, human IgG1, kappa, V domains shown, Humanized B-E29 variant; human IgG1 (G1m3) / kappa (Km3), produced in CHO cells; also called huVH21/huVL6) VH: EVRLMASGGGLVQPGGSLRLSCAASEFTFSNYAMSWVRQAPGKGLEWVATISRGGDYTYYPESVKGRFTISRDNSKNTLYLQMNSLRAEDTAVYYCARRVSFITGGYAMDYWGQGTLVTVSS VL: DVVMTQSPLSLPVTLGQPASISCRSSQSIVDITGNTYLEWFQQRPGQSPRRLIYKVFNRFSGVPDRFSGSGSGTDFTLKISRVEAEDVGVYYCFQESFVPYTFGQGTKLEIKR	3.89
huB-E29-12 (antibody, human IgG1, kappa, V domains shown, Humanized B-E29 variant; human IgG1 (G1m3) / kappa (Km3), produced in CHO cells; also called huVH10/huVL1) VH: EVRLMASGGGLVQPGGSLRLSCAASEFTFSNYAMSWVRQAPGKGLEWVATISRGGDYTYYPDTVKGRFTISRDNSKNTLYLQMNSLRAEDTAVYYCARRVSMITGGAAMDYWGQGTLVTVSS VL: DVVMTQSPLSLPVTLGQPASISCRSSQSIVDITGNTYLEWYQQRPGQSPRLLIYKVFNRFSGVPDRFSGSGSGTDFTLKISRVEAEDVGVYYCFQDSFVPYTFGQGTKLEIKR	0.593

Continued by falling EC50, values first:

EC50 [nM]	Binder
3.87	huB-E29-22 (antibody, human IgG1, kappa, V domains shown, Humanized B-E29 variant; human IgG1 (G1m3) / kappa (Km3), produced in CHO cells; also called huVH16/huVL6) VH: EVQLVESGGGLVQPGGSLRLSCAASEFTFSNYAMSWVRQAPGKGLEWVATISRGGDYTYYPDSVKGRFTISRDNSKNTLYLQMNSLRAEDTAVYYCARRVSFITGGYAFDYWGQGTLVTVSS VL: DVVMTQSPLSLPVTLGQPASISCRSSQSIVDITGNTYLEWFQQRPGQSPRRLIYKVFNRFSGVPDRFSGSGSGTDFTLKISRVEAEDVGVYYCFQESFVPYTFGQGTKLEIKR
3.51	huB-E29-31 (antibody, human IgG1, kappa, V domains shown, Humanized B-E29 variant; human IgG1 (G1m3) / kappa (Km3), produced in CHO cells; also called huVH20/huVL6) VH: EVRLMASGGGLVQPGGSLRLSCAASEFTFSNYAMSWVRQAPGKGLEWVATISRGGDYTYYPDSVKGRFTISRDNSKNTLYLQMNSLRAEDTAVYYCARRVSFITGGYAMDYWGQGTLVTVSS VL: DVVMTQSPLSLPVTLGQPASISCRSSQSIVDITGNTYLEWFQQRPGQSPRRLIYKVFNRFSGVPDRFSGSGSGTDFTLKISRVEAEDVGVYYCFQESFVPYTFGQGTKLEIKR
2.21	huB-E29-19 (antibody, human IgG1, kappa, V domains shown, Humanized B-E29 variant; human IgG1 (G1m3) / kappa (Km3), produced in CHO cells; also called huVH1/huVL5) VH: EVRLMASGGGLVQPGGSLRLSCAASEFTFSNYAMSWVRQAPGKGLEWVATISRGGDYTYYPDSVKGRFTISRDNSKNTLYLQMNSLRAEDTAVYYCARRVSMITGGWAMDYWGQGTLVTVSS VL: DVVMTQSPLSLPVTLGQPASISCRSSQSIVDITGNTYLEWYQQRPGQSPRLLIYKVFNRFSGVPDRFSGSGSGTDFTLKISRVEAEDVGVYYCFQDTFVPYTFGQGTKLEIKR
0.98	huB-E29-11 (antibody, human IgG1, kappa, V domains shown, Humanized B-E29 variant; human IgG1 (G1m3) / kappa (Km3), produced in CHO cells; also called huVH9/huVL1) VH: EVRLMASGGGLVQPGGSLRLSCAASEFTFSNYAMSWVRQAPGKGLEWVATISRGGDYTYYPDTVKGRFTISRDNSKNTLYLQMNSLRAEDTAVYYCARRVSMITGGFAMDYWGQGTLVTVSS VL: DVVMTQSPLSLPVTLGQPASISCRSSQSIVDITGNTYLEWYQQRPGQSPRLLIYKVFNRFSGVPDRFSGSGSGTDFTLKISRVEAEDVGVYYCFQDSFVPYTFGQGTKLEIKR

These binders were tested against T1, recombinant Macaque Monkey IL-15 (MyBiosource cat. no. MBS948894) (Rhesus macaque / Cynomolgus monkey, UniProt P40221 49-162 (Chlorocebus aethiops entry)) (assay: ELISA, plate-bound Macaque Monkey IL-15; printed as BC50 (half-maximal binding concentration)).
T1 construct: Produced in yeast; also called Rhesus macaque IL-15; recombinant monkey IL-15; not shown: additional N-terminal His tag
Method: as §1, §2

T1 sequence (P40221 49-162): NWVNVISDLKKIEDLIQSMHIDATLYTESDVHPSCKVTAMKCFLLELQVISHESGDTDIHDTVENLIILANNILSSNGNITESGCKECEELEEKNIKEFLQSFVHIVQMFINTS

EC50 [nM]	Binder
0.433	huB-E29-7 (antibody, human IgG1, kappa, V domains shown, Humanized B-E29 variant; human IgG1 (G1m3) / kappa (Km3), produced in CHO cells; also called huVH5/huVL1) VH: EVRLMASGGGLVQPGGSLRLSCAASEFTFSNYAMSWVRQAPGKGLEWVATISRGGDYTYYPESVKGRFTISRDNSKNTLYLQMNSLRAEDTAVYYCARRVSFITGGWAMDYWGQGTLVTVSS VL: DVVMTQSPLSLPVTLGQPASISCRSSQSIVDITGNTYLEWYQQRPGQSPRLLIYKVFNRFSGVPDRFSGSGSGTDFTLKISRVEAEDVGVYYCFQDSFVPYTFGQGTKLEIKR
